# Data published in patent US20240376221A1 (Genmab, published 2024).
# Where two headings read alike, the source gives them in different places.
# T1: His-tagged human recombinant FcγRIIb (human, UniProt P31994 43-217)
# T1 construct: bought; also called FcγRII2b [sic]; not shown: His-tag
# T1 sequence (looked up): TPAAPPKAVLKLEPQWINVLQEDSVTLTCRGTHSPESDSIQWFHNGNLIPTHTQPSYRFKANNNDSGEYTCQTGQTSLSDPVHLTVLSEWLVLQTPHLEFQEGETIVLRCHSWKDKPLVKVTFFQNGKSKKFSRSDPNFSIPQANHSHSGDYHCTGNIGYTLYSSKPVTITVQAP
# T2: His-tagged human recombinant FcγRIIa 167-His (human, UniProt P12318 34-218)
# T2 construct: bought; also called FcγRIIa[H]; not shown: His-tag
# T2 sequence (looked up): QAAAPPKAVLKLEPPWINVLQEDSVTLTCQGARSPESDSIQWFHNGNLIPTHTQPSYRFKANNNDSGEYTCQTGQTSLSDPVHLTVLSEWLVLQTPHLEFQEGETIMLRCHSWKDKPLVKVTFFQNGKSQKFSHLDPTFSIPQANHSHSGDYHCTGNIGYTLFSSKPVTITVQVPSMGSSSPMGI
# T3: His-tagged human recombinant FcγRIIa 167-Arg (human, UniProt P12318 34-218)
# T3 construct: bought; also called FcγRIIa[R]; not shown: His-tag
# T3 sequence (looked up): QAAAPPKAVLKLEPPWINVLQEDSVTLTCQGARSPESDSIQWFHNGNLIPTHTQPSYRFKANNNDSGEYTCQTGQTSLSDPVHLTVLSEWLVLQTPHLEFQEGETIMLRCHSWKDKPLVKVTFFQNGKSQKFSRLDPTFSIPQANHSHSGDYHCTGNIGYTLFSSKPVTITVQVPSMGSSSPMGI
# T4: recombinant cynomolgus monkey OX40 (Acro Biosystems, cat. no. OXO-C5220) (cynomolgus monkey, UniProt P43489 29-216 (human entry), limits assumed)
# T4 construct: bought soluble protein; also called Cyno OX40
# T4 chain: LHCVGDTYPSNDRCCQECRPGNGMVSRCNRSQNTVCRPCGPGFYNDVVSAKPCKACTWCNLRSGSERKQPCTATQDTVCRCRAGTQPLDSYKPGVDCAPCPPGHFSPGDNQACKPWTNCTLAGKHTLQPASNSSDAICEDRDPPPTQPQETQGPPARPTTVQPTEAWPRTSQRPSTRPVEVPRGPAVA
# B1: IgG1-b12 (antibody)
# heavy: not shown
# VL: EIVLTQSPGTLSLSPGERATFSCRSSHSIRSRRVAWYQHKPGQAPRLVIHGVSNRASGISDRFSGSGSGTDFTLTITRVEPEDFALYYCQVYGASSYTFGQGTKLERK
# notes: wild-type Fc domain; also called anti-HIV gp120 antibody IgG1-b12
# B2: IgG1-CD134-003-HC6LC2 (antibody)
# heavy: not shown
# light: AAVLTQSPSSLSASVGDRVTITCQSSQIVVNNNFLSWYQQKPGKAPKLLIYDASNLASGVPDRFSGSGSGTDFTFTISSLQPEDIATYYCLGGYDDDAENAFGGGTKVEIKRTVAAPSVFIFPPSDEQLKSGTASVVCLLNNFYPREAKVQWKVDNALQSGNSQESVTEQDSKDSTYSLSSTLTLSKADYEKHKVYACEVTHQGLSSPVTKSFNRGEC
# notes: variant of m1 without Fc mutations
# B3: IgG1-CD134-003 (antibody)
# heavy: not shown
# light: AAVLTQTPSPVSAAVGGTVTIKCQSSQIVVNNNFLSWYQQKPGQPPKLLIYDASNLASGVPDRFSGSGSGTQFTLTISGVQSDDAATYYCLGGYDDDAENAFGGGTEVVVQRTVAAPSVFIFPPSDEQLKSGTASVVCLLNNFYPREAKVQWKVDNALQSGNSQESVTEQDSKDSTYSLSSTLTLSKADYEKHKVYACEVTHQGLSSPVTKSFNRGEC
# notes: rabbit-human chimeric, wild-type IgG1 Fc
# B4: IgG1-CD134-003-HC6LC2-P329R-E345R (antibody)
# heavy: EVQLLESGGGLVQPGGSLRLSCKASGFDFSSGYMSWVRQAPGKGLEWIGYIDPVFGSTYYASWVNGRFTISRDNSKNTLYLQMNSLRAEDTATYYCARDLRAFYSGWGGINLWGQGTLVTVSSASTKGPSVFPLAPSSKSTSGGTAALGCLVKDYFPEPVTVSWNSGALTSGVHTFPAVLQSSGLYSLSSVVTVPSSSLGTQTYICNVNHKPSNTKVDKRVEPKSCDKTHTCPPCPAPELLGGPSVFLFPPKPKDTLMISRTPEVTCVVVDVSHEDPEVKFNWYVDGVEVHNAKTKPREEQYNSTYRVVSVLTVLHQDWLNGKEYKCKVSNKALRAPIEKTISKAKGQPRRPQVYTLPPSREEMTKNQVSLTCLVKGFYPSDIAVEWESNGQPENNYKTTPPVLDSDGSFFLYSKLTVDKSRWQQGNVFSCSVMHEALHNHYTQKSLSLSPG
# light: AAVLTQSPSSLSASVGDRVTITCQSSQIVVNNNFLSWYQQKPGKAPKLLIYDASNLASGVPDRFSGSGSGTDFTFTISSLQPEDIATYYCLGGYDDDAENAFGGGTKVEIKRTVAAPSVFIFPPSDEQLKSGTASVVCLLNNFYPREAKVQWKVDNALQSGNSQESVTEQDSKDSTYSLSSTLTLSKADYEKHKVYACEVTHQGLSSPVTKSFNRGEC
# notes: humanized; human IgG1 with P329R and E345R (Eu); also called IgG1-CD134-003-HC6LC2-RR
# B5: IgG1-CD134-007 (antibody)
# heavy: not shown
# light: AQVLTQTPSPVSAAVGGTVTISCQSSESVWNNNWLAWYQQKPGQPPNLLIYEASTLASGVSSRFKGSGSGTQFTLTVSEVQSDDAATYYCQGGYYDSSPIWTFGGGTEVVVKRTVAAPSVFIFPPSDEQLKSGTASVVCLLNNFYPREAKVQWKVDNALQSGNSQESVTEQDSKDSTYSLSSTLTLSKADYEKHKVYACEVTHQGLSSPVTKSFNRGEC
# notes: rabbit-human chimeric IgG1
# B6: IgG1-CD134-012 (antibody)
# heavy: not shown
# light: DIVMTQTPASVEAAVGGTVTIKCQASENIYSSLAWYQQKPGQPPKLLIYRTSTLASGVPSRFKGSGSGTQFTLTISDLESDDAATYYCQSYYHNSGGGYDYGFGGGTEVVAKRTVAAPSVFIFPPSDEQLKSGTASVVCLLNNFYPREAKVQWKVDNALQSGNSQESVTEQDSKDSTYSLSSTLTLSKADYEKHKVYACEVTHQGLSSPVTKSFNRGEC
# notes: rabbit-human chimeric IgG1
# Legend:
# [1] = target: T1, His-tagged human recombinant FcγRIIb; experiment: SPR, His-tagged FcγRIIb captured on an anti-His chip, antibody injected
# Protocol: (§1) Biacore Series S Sensor Chips CM5 (Cytiva, cat. no. 29104988) were covalently coated with anti-His antibody using amine-coupling and His capture kits (Cytiva, cat. no. BR100050 and cat. no. 29234602) according to the manufacturer's instructions. […] After three start-up cycles of HBS-EP+ buffer, antibody samples were injected for 12 cycles per sample to generate binding curves using antibody concentration ranges of 0 to 3,000 nM for FcγRIa and 0 to 10,000 nM for the other FcγRs. […] Dissociation from the anti-His-coated surface was performed by regeneration of the surface using 10 mM Glycine-HCl pH 1.5 (Cytiva, cat. no. BR100354).
# [2] = target: T5, His-tagged human recombinant FcγRIIIa 176-Val (human, UniProt P08637 17-208); experiment: SPR, His-tagged FcγRIIIa[V] captured on an anti-His chip, antibody injected
# T5 construct: bought; also called FcγRIIIa[V]; not shown: His-tag
# Protocol: as §1
# [3] = target: T2, His-tagged human recombinant FcγRIIa …; experiment: SPR, His-tagged FcγRIIa[H] captured on an anti-His chip, antibody injected
# Protocol: as §1
# [4] = target: T6, His-tagged human recombinant FcγRIIIa 176-Phe (human, UniProt P08637 17-208); experiment: SPR, His-tagged FcγRIIIa[F] captured on an anti-His chip, antibody injected
# T6 construct: bought; also called FcγRIIIa[F]; not shown: His-tag
# Protocol: as §1
# [5] = target: T3, His-tagged human recombinant FcγRIIa …; experiment: SPR, His-tagged FcγRIIa[R] captured on an anti-His chip, antibody injected
# Protocol: as §1
# [6] = target: T7, His-tagged human recombinant FcγRIa (human, UniProt P12314 16-288); experiment: SPR, His-tagged FcγRIa captured on an anti-His chip, antibody injected
# T7 construct: bought; also called FcγRIa (SPR); not shown: His-tag
# Protocol: as §1
# [7] = target: T7, His-tagged human recombinant FcγRIa; experiment: as above; remark: listed apart in the source
# Protocol: as §1
# [8] = target: T8, human FcγRIa, cell surface-expressed (human, UniProt P12314 16-374); experiment: flow cytometry, ExpiCHO-S cells transfected with human FcγRIa
# T8 construct: whole, on cells; also called CD64; FcγR1a on ExpiCHO-S cells
# [9] = target: T4, recombinant cynomolgus monkey OX40 …; experiment: BLI, Ab on AHC sensor, OX40 analyte
# Protocol: (§2) Experiments were carried out while shaking at 1,000 RPM at 30° C. […] Next, AHC sensors were loaded with antibody (1 μg/mL in Sample Diluent) for 600 s. After a baseline measurement in sample diluent (100 s), the association (200 s) and dissociation (1,000 s) of human OX40 (Acro Biosystems, cat. no. OXO-H5224), and cynomolgus monkey OX40 (Acro Biosystems, cat. no. OXO-C5220) was determined using a concentration range of 0.78 to 800 nM with 2-fold dilution steps.
# (§3) Data were acquired using Data Acquisition Software v12.0 (Sartorius) and analyzed with Data Analysis Software v12.0 (Sartorius). Data traces were corrected per antibody by subtraction of the reference sensor. The Y-axis was aligned to the last 10 s of the baseline and Interstep Correction alignment to dissociation as well as Savitzky-Golay filtering were applied. Data traces with a response<0.05 nm were excluded from analysis. […] The data was fitted with the 1:1 model using a window of interest for the association of 200 s and dissociation times set at 50 s, 200 s and 1,000 s. The dissociation time was chosen based upon R² value, visual inspection of the curve and at least 5% signal decay during the dissociation step.
# [10] = target: T4, recombinant cynomolgus monkey OX40 …; experiment: BLI, Ab on AHC sensor, OX40 analyte; * binding observed, less reliable fit
# Protocol: as §2, §3
# T7 sequence (P12314 16-288 limits assumed): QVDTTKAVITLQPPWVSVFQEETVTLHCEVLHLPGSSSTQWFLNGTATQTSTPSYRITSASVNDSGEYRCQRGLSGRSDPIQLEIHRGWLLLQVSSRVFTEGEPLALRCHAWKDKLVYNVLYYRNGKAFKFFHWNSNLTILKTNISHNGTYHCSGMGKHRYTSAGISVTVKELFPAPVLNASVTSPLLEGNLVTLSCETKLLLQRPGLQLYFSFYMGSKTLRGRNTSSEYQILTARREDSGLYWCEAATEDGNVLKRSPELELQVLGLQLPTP
# T8 sequence (P12314 16-374): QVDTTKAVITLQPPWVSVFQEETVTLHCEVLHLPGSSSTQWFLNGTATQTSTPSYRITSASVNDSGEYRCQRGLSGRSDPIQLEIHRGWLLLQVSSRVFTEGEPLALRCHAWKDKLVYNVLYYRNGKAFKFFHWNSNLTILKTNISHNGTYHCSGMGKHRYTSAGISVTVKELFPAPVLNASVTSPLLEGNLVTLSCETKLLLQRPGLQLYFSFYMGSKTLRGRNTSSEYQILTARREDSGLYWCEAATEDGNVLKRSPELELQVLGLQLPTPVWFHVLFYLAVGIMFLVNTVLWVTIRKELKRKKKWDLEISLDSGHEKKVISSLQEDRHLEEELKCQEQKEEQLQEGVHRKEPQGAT
# T5 sequence (P08637 17-208 F176V limits assumed): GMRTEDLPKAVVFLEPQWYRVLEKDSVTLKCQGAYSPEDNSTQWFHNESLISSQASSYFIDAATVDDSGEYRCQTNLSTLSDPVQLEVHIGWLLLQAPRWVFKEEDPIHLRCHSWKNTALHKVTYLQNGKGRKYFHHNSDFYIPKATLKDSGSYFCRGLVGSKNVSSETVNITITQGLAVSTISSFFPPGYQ
# T6 sequence (P08637 17-208 limits assumed): as the sequence (P08637 17-208 F176V limits assumed) above, with V160F counted along it
binder,measurement,setting,value
B1,binding result,[1],binds
same,binding result,[2],binds
same,binding result,[3],binds
same,binding result,[4],binds
same,binding result,[5],binds
same,EC50 (read off the curve),[6],~30 nM
same,EC50 (read off the curve),[7],~20 nM
B2,binding result,[8],binds
B3,EC50 (read off the curve),[8],~0.7 µg/mL
same,Kd,[9],3.5 nM
same,koff,[9],0.00096 s⁻¹
same,kon,[9],280000 M⁻¹ s⁻¹
B4,Kd,[9],27 nM
same,koff,[9],0.0029 s⁻¹
same,kon,[9],110000 M⁻¹ s⁻¹
B5,Kd,[9],7.1 nM
same,koff,[9],0.0018 s⁻¹
same,kon,[9],260000 M⁻¹ s⁻¹
B6,Kd,[10],180 nM
same,koff,[10],0.018 s⁻¹
same,kon,[10],98000 M⁻¹ s⁻¹
